# In US20210324028A1 (Pfizer, published 2021):
# Residue numbers refer to the chain shown, from its start. Names and notes keep the numbering of the source. Where two headings read alike, the source gives them in different places.
# T1: IL-15 signaling receptor on 32D[pRF770+pRF791] cells (human CD122 plus mouse CD132) (human; mouse, UniProt P14784 27-551; P34902 23-369)
# T1 sequence (looked up) 1: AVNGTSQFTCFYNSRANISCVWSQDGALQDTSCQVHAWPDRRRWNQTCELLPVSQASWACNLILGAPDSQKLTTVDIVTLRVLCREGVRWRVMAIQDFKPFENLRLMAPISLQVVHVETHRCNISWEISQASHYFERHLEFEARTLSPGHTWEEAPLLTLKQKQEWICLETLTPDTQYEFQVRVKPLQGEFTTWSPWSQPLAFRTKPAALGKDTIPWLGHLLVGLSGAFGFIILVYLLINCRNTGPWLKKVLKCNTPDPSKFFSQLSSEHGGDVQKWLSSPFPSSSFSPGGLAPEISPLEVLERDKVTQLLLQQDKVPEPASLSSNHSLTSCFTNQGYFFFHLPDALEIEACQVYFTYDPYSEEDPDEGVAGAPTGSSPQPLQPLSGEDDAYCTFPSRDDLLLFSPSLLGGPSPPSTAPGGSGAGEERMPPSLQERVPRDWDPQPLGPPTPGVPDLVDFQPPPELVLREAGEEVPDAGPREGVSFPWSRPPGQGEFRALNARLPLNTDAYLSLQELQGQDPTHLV
# T1 sequence (looked up) 2: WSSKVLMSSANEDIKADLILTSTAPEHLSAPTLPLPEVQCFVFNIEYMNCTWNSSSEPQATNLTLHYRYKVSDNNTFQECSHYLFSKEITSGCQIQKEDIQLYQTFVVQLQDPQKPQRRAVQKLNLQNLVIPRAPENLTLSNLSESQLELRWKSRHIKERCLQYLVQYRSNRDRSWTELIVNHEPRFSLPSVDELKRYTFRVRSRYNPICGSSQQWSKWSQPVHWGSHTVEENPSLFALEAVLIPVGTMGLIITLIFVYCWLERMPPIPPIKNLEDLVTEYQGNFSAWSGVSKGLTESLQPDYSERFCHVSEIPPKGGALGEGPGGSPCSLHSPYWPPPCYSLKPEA
# T2: mouse PD-1 on doxycycline-induced 32D[pRF770+pRF791] cells (mouse, UniProt Q02242 25-288)
# T2 sequence (looked up): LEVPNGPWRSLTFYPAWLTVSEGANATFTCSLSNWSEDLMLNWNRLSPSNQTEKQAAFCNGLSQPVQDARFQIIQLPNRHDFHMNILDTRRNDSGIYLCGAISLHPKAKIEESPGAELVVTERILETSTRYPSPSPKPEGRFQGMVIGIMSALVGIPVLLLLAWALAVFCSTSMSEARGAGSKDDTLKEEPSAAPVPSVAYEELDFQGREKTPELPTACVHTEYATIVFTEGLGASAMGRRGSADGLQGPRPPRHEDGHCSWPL
# T3: human IL-2Rβ (human, UniProt P14784 27-240, limits assumed)
# T3 construct: also called hIL-2Rβ; IL-2 receptor beta
# T3 sequence (looked up): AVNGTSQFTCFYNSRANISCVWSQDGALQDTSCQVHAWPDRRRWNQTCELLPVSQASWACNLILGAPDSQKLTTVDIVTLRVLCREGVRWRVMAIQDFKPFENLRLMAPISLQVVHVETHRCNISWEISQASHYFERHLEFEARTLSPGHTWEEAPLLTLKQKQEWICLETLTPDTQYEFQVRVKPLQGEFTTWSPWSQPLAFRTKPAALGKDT
# B1: xmPD-1-hIL15 NQ-3d (other)
# heavy 1: HHHHHHHHGGGGSGSGGEVQLVESGGGLVKPGGSLELSCAASGFTFSSYWMSWVRQAPEKGLEWVAAISPSGGSTYYADSVKGRFTISRDNAKNTLFLQMTSLRSEDTAMYYCAKESWGAYYDLWGQGTTVTVSSASTKGPSVFPLAPCSRSTSESTAALGCLVKDYFPEPVTVSWNSGALTSGVHTFPAVLQSSGLYSLSSVVTVPSSNFGTQTYTCNVDHKPSNTKVDKTVERKCRVRCPRCPAPPVAGPSVFLFPPKPKDTLMISRTPEVTCVVVAVSHEDPEVQFNWYVDGVEVHNAKTKPREEQFNSTFRVVSVLTVVHQDWLNGKEYKCKVSNKGLPSSIEKTISKTKGQPREPQVYTLPPSREEMTKNQVSLTCLVKGFYPSDIAVEWESNGQPENNYKTTPPMLDSDGSFFLYSRLTVDKSRWQQGNVFSCSVMHEALHNHYTQKSLSLSPGK
# heavy 2: EVQLVESGGGLVKPGGSLELSCAASGFTFSSYWMSWVRQAPEKGLEWVAAISPSGGSTYYADSVKGRFTISRDNAKNTLFLQMTSLRSEDTAMYYCAKESWGAYYDLWGQGTTVTVSSASTKGPSVFPLAPCSRSTSESTAALGCLVKDYFPEPVTVSWNSGALTSGVHTFPAVLQSSGLYSLSSVVTVPSSNFGTQTYTCNVDHKPSNTKVDKTVERKCEVECPECPAPPVAGPSVFLFPPKPKDTLMISRTPEVTCVVVAVSHEDPEVQFNWYVDGVEVHNAKTKPREEQFNSTFRVVSVLTVVHQDWLNGKEYKCKVSNKGLPSSIEKTISKTKGQPREPQVYTLPPSREEMTKNQVSLTCEVKGFYPSDIAVEWESNGQPENNYKTTPPMLDSDGSFFLYSKLTVDKSRWQQGNVFSCSVMHEALHNHYTQKSLSLSPGSGGGGGTSATATPGANWVNVISDLKKIEDLIQSMHIDATLYTESDVHPSCKVTAMKCFLLQLQVISLQSGDASIHDTVENLIILANNSLSSNGNVTESGCKECEELEQKNIKEFLQSFVHIVQMFINT
# light: DIVMTQSPSSLSVSAGDKVTMSCRASQGISSWLAWYQQKPWQPPKLLIYKASTLESGVPDRFTGSGSGTDFTLTISSVQAEDLAVYYCQQSYSTPWTFGGGTKLEIKGTVAAPSVFIFPPSDEQLKSGTASVVCLLNNFYPREAKVQWKVDNALQSGNSQESVTEQDSKDSTYSLSSTLTLSKADYEKHKVYACEVTHQGLSSPVTKSFNRGEC
# notes: also called xmPD-1-IL15 NQ-3d; xmPD-IL15 NQ3d
# B2: xmPD-1-hIL15 V49R/E46G/E64Q/D30N/N4K/M109A (other)
# heavy 1: B1 heavy 1
# heavy 2: B1 heavy 2 with N462K, D488N, Q504G, V507R, Q511E, E522Q, Q551E, M567A
# light: B1 light
# notes: not restated for this mutant; also called xmPD1-hIL15_V49R-E46G-E64Q-N4K-D30N-M109A; xmPD-1-hIL15 VS49R/E46G/E64Q/D30N/N4K/M109A
# B3: xmPD-1-hIL15 V49R/E46G/E64Q/D30N (other)
# heavy 1: B1 heavy 1
# heavy 2: B1 heavy 2 with D488N, Q504G, V507R, Q511E, E522Q, Q551E
# light: B1 light
# notes: not restated for this mutant; also called xmPD-IL15 V49R/E46G/E64Q/D30N
# B4: xmPD-1-hIL15 V49R/E46G/E64Q/D30N/N4K (other)
# heavy 1: B1 heavy 1
# heavy 2: B1 heavy 2 with N462K, D488N, Q504G, V507R, Q511E, E522Q, Q551E
# light: B1 light
# notes: not restated for this mutant; also called xmPD1-hIL15_V49R-E46G-N4K-E64Q-D30N
# B5: xmPD-1-hIL15 V49R/E46G/E64Q/D30N/I68S (other)
# heavy 1: B1 heavy 1
# heavy 2: B1 heavy 2 with D488N, Q504G, V507R, Q511E, E522Q, I526S, Q551E
# light: B1 light
# notes: not restated for this mutant; also called xmPD1-hIL15_V49R-E46G-E64Q-I68S-D30N
# B6: xmPD-1-IL15 m2 (other)
# heavy 1: EVQLVESGGGLVKPGGSLELSCAASGFTFSSYWMSWVRQAPEKGLEWVAAISPSGGSTYYADSVKGRFTISRDNAKNTLFLQMTSLRSEDTAMYYCAKESWGAYYDLWGQGTTVTVSSASTKGPSVFPLAPSSKSTSGGTAALGCLVKDYFPEPVTVSWNSGALTSGVHTFPAVLQSSGLYSLSSVVTVPSSSLGTQTYICNVNHKPSNTKVDKKVEPKSCDKTHTCPPCPAPEAAGAPSVFLFPPKPKDTLMISRTPEVTCVVVDVSHEDPEVKFNWYVDGVEVHNAKTKPREEQYNSTYRVVSVLTVLHQDWLNGKEYKCKVSNKALPAPIEKTISKAKGQPREPQVYTLPPCREEMTKNQVSLSCAVKGFYPSDIAVEWESNGQPENNYKTTPPVLDSDGSFFLVSKLTVDKSRWQQGNVFSCSVMHEALHNHYTQKSLSLSPGSGGGGSGGGGSGGGGGWVNVISDLKKIEDLIQSMHIDATLYTESNVHPSCKVTAMKCFLLGLQRISLESGDASIHDTVQNLIILANNSLSSNGNVTESGCKECEELEEKNIKEFLQSFVHIVQMFINTS
# heavy 2: EVQLVESGGGLVKPGGSLELSCAASGFTFSSYWMSWVRQAPEKGLEWVAAISPSGGSTYYADSVKGRFTISRDNAKNTLFLQMTSLRSEDTAMYYCAKESWGAYYDLWGQGTTVTVSSASTKGPSVFPLAPSSKSTSGGTAALGCLVKDYFPEPVTVSWNSGALTSGVHTFPAVLQSSGLYSLSSVVTVPSSSLGTQTYICNVNHKPSNTKVDKKVEPKSCDKTHTCPPCPAPEAAGAPSVFLFPPKPKDTLMISRTPEVTCVVVDVSHEDPEVKFNWYVDGVEVHNAKTKPREEQYNSTYRVVSVLTVLHQDWLNGKEYKCKVSNKALPAPIEKTISKAKGQPREPQVCTLPPSREEMTKNQVSLWCLVKGFYPSDIAVEWESNGQPENNYKTTPPVLDSDGSFFLYSKLTVDKSRWQQGNVFSCSVMHEALHNHYTQKSLSLSPGK
# light: B1 light
# notes: also called xmPD-1-hIL15 V49R/E46G/N1G/E64Q/D30N
# B7: xmPD-1-hIL15 V49R/E46G/E64Q/D30N/I68S/M109A (other)
# heavy 1: B1 heavy 1
# heavy 2: B1 heavy 2 with D488N, Q504G, V507R, Q511E, E522Q, I526S, Q551E, M567A
# light: B1 light
# notes: not restated for this mutant; also called xmPD1-hIL15_V49R-E46G-E64Q-I68S-D30N-M109A
# Legend:
# [1] = target: T1, IL-15 signaling receptor on …; test: cell-based or functional assay
# [2] = target: T2, mouse PD-1 on doxycycline-induced …; test: cell-based or functional assay
# human IL-15Rα = target: T4, human IL-15Rα (human, UniProt Q13261 31-205, limits assumed); test: SPR 37C, fusion captured by anti-human Fc
# T4 construct: also called hIL-15Rα; IL-15 receptor alpha
# T4 sequence (Q13261 31-205 limits assumed): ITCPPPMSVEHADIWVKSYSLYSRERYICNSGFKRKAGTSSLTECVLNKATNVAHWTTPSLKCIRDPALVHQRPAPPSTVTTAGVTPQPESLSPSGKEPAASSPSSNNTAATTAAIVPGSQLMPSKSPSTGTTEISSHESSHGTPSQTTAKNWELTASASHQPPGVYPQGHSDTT
# Protocol: (§1) Anti-human Fc sensor chips were prepared at 25° C. with a running buffer of 10 mM HEPES, 150 mM NaCl, 0.05% (v/v) Tween-20, pH 7.4. All surfaces of a Biacore CM4 sensor chip were activated with a 1:1 (v/v) mixture of 400 mM EDC and 100 mM NHS for 7 minutes, at a flow rate of 10 μL/min. An anti-human Fc reagent (Goat anti-human IgG Fc-γ specific, SouthernBiotech, Birmingham, Ala., Catalog #2014-01) was diluted to 50 μg/mL in 10 mM sodium acetate (pH 4.5) and injected on all flow cells for 7 minutes at 20 μL/min. All flow cells were blocked with 100 mM ethylenediamine in 200 mM Borate buffer pH 8.5 for 7 minutes at 10 μL/min.
# (§2) All protein interaction experiments were performed at 37° C. using a running buffer of 10 mM HEPES, 150 mM NaCl, 0.05% (v/v) Tween-20, pH 7.4, 1 mg/mL BSA. Anti-PD-1-hIL-15 fusion proteins were captured at 10 μg/mL at a flow rate of 10 μL/min for 2 minutes. Different fusion proteins were captured in flow cells 2, 3 and 4. No protein was captured onto flow cell 1 which was used as a reference surface. […] After each analyte injection, dissociation was monitored for 5 minutes followed by regeneration of all flow cells with three 60-second injections of 75 mM phosphoric acid. […] For kinetic analysis, the double-referenced sensorgrams were fit globally to a simple 1:1 Langmuir with mass transport binding model using Biacore T200 Evaluation Software version 2.0. For steady-state affinity analysis, the double-referenced equilibrium binding responses were fit with a 1:1 Langmuir steady-state model using Biacore T200 Evaluation Software version 2.0.
# human IL-2Rβ [3] = target: T3, human IL-2Rβ; test: SPR, steady state, fusion captured
# Protocol: as §1, §2
# human IL-2Rβ [4] = target: T3, human IL-2Rβ; test: SPR 37C, fusion captured by anti-human Fc
# Protocol: as §1, §2
# human IL-2Rβ [5] = target: T3, human IL-2Rβ; test: SPR, fusion captured
# Protocol: as §1, §2
# [6] = target: T1, IL-15 signaling receptor on …; test: cell-based or functional assay; remark: listed apart in the source
# [7] = target: T2, mouse PD-1 on doxycycline-induced …; test: cell-based or functional assay; remark: listed apart in the source
binder,measurement,setting,value
B1,pSTAT5 EC50 on PD-1(low) 32D reporter cells,[1],3.73 nM
same,Fold change = EC50 (PD-1(low))/EC50 (PD-1+),[2],163 fold
same,pSTAT5 EC50 on PD-1+ 32D reporter cells,[2],22.9 pM
same,binding result,human IL-15Rα,no binding (tested: 3000 nM)
same,Kd,human IL-2Rβ [3],0.446 µM
B2,binding result,human IL-2Rβ [4],no binding (tested: 3000 nM)
same,binding result,human IL-15Rα,no binding (tested: 3000 nM)
B3,Kd,human IL-2Rβ [5],> 3 µM
same,pSTAT5 EC50 on PD-1(low) 32D reporter cells,[1],98 nM
same,Fold change = EC50 (PD-1(low))/EC50 (PD-1+),[2],715 fold
same,pSTAT5 EC50 on PD-1+ 32D reporter cells,[2],0.137 nM
same,binding result,human IL-15Rα,no binding (tested: 3000 nM)
B4,binding result,human IL-2Rβ [4],no binding (tested: 3000 nM)
same,binding result,human IL-15Rα,no binding (tested: 3000 nM)
B5,binding result,human IL-2Rβ [4],no binding (tested: 3000 nM)
same,binding result,human IL-15Rα,no binding (tested: 3000 nM)
B6,Kd,human IL-2Rβ [5],> 1.5 µM
same,pSTAT5 EC50 on PD-1(low) 32D reporter cells,[6],734 nM
same,Fold change = EC50 (PD-1(low))/EC50 (PD-1+),[7],2370 fold
same,pSTAT5 EC50 on PD-1+ 32D reporter cells,[7],0.31 nM
same,binding result,human IL-15Rα,no binding (tested: 3000 nM)
B7,binding result,human IL-2Rβ [4],no binding (tested: 3000 nM)
same,binding result,human IL-15Rα,no binding (tested: 3000 nM)
